# Values of other authors, collected in patent US20040101532A1, “Methods and compositions for heat shock protein mediated immunotherapy of melanoma” (priority 2004, published 2004).
# Legend:
# [1] = test system: gp100; details: detected without extensive preliminary in vitro sensitization
# [2] = test system: CD8+ cytotoxic T lymphocytes; details: HLA-A*0201-restricted TRP-2 peptides
# [3] = vaccinated patients
# [4] = test system: tyrosinase; details: vaccinated patients, after immunization with the tyrosinase peptide antigen
sequence,measurement,setting,value
"IMDQVPFSV [gp100:209-217 peptide modified at second position, methionine for threonine]",anti-gp100 T cell reactivity induced by immunization,[1],induce anti-gp 100 T cell reactivity
"TLDSQVMSL [TRP-2(360-368), HLA-A*0201-restricted TRP-2 peptide]",induction of specific CD8+ cytotoxic T lymphocytes,[2],induced specific CD8+ cytotoxic T lymphocytes
"VMGTLVALV [TRP-2(476-484), HLA-A*0201-restricted TRP-2 peptide]",induction of specific CD8+ cytotoxic T lymphocytes,[2],induced specific CD8+ cytotoxic T lymphocytes
YMDGTMSQV [tyrosinase:368-376 (370D)],tolerability in clinical trial,[3],well tolerated with little toxicity
same,increase in T cell responsiveness against tyrosinase by ELISPOT,[4],Two of nine vaccinated patients showed an increase in T cell responsiveness
